Results as given in patent US20200247894A1 (Regeneron, published 2020).
Residue numbers refer to the chain shown, from its start. One block for each binder: values may come before it.

How the values were obtained:
[1] = molecular target: T1, Macaca fascicularis IL2Rγ extracellular domain expressed with a C-terminal myc-myc-hexahistidine tag (Macaca fascicularis); test: SPR Biacore 4000, mAb captured by anti-hFc, 37C, dissociation in PBS-T pH 7.4
T1 construct: also called mfIL-2Rg-MMH; mfIL-2RG-MMH
T1 chain: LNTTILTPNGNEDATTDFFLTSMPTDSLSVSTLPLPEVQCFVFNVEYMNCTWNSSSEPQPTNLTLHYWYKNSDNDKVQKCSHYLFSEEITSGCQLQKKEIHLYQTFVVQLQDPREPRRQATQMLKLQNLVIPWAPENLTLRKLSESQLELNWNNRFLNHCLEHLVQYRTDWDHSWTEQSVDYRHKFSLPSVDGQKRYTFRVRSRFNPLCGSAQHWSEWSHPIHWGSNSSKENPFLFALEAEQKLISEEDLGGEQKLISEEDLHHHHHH
Method: (§1) The dissociation rate constant (kd) for binding of IL-2Rγ reagents to purified anti-IL2Rγ monoclonal antibodies was determined using a real-time surface plasmon resonance based Biacore 4000 biosensor platform. […] The CM5 Biacore sensor surface derivatized by amine coupling with monoclonal mouse anti-human Fc antibody (GE, Catalog # BR-1008-39) was used to capture anti-IL2Rγ monoclonal antibodies expressed with human IgG4 Fc. All the IL2Rγ reagents were expressed with a C-terminal myc-myc-hexahistidine tag (subsequently referred to with a -MMH suffix). […] The dissociation of bound IL-2Rg-MMH was performed in PBS-T-pH7.4 or PBS-T-pH6.0 running buffers for 6 minutes.
(§2) Dissociation rate constants (kd) in two running buffers were determined by fitting the real-time binding sensorgrams to a 1:1 binding model using Scrubber 2.0c curve-fitting software. Values of dissociation rate for […] mAb binding to hIL-2RG-MMH and mfIL-2RG-MMH at 25° C. and 37° C. in PBS-T-pH7.4 and PBS-T-pH6.0 is shown in Table 2-1 through Table 2-8.

[2] = molecular target: T1, Macaca fascicularis IL2Rγ extracellular …; test: SPR Biacore 4000, mAb captured by anti-hFc, 37C, dissociation in PBS-T pH 6.0
Method: as §1, §2

[3] = molecular target: T2, Human IL2Rγ extracellular domain expressed with a C-terminal myc-myc-hexahistidine tag (human); test: SPR Biacore 4000, mAb captured by anti-hFc, HBS-ET, 37C
T2 construct: also called hIL-2Rg-MMH; hIL-2RG-MMH
T2 chain: T1 chain with A14T, T16A, S22T, R141H, S228T
Method: (§3) Equilibrium dissociation constants (KD values) for IL-2Rγ binding to purified anti-IL2Rγ monoclonal antibodies were determined using a Biacore 4000 instrument equipped with a real-time surface plasmon resonance biosensor. All binding studies were performed in 10 mM HEPES, 150 mM NaCl, 3 mM EDTA, and 0.05% v/v Surfactant Tween-20, pH 7.4 (HBS-ET) running buffer at 25° C. and 37° C. The Biacore sensor surface was first derivatized by amine coupling with a monoclonal mouse anti-human Fc antibody (GE, # BR-1008-39) to capture anti-IL2Rγ monoclonal antibodies.
(§4) The dissociation of monoclonal antibody bound IL2Rγ reagents were monitored for 8-10 minutes in HBS-ET running buffer. Kinetic association (kₐ) and dissociation (kd) rate constants were determined by fitting the real-time sensorgrams to a 1:1 binding model using Scrubber 2.0c curve fitting software. Binding dissociation equilibrium constants (KD) and dissociative half-lives (t_{1/2}) were calculated from the kinetic rate constants as: […]

[4] = molecular target: T2, Human IL2Rγ extracellular domain …; test: SPR Biacore 4000, mAb captured by anti-hFc, HBS-ET, 25C
Method: as §3, §4

[5] = molecular target: T1, Macaca fascicularis IL2Rγ extracellular …; test: as above
Method: as §3, §4

100 nM Ag Bound (RU) [1]: 160 RU
koff [1]: 0.000552 s⁻¹
t1/2 [1]: 21 min
100 nM Ag Bound (RU) [2]: 122 RU
koff [2]: 0.00211 s⁻¹
t1/2 [2]: 5 min
100 nM Ag Bound [3]: 36 RU
Kd [3]: 7.27 nM
koff [3]: 0.00249 s⁻¹
kon [3]: 342000 M⁻¹ s⁻¹
t1/2 [3]: 5 min
100 nM Ag Bound [4]: 61 RU
Kd [4]: 2.51 nM
koff [4]: 0.000458 s⁻¹
kon [4]: 182000 M⁻¹ s⁻¹
t1/2 [4]: 25 min
100 nM Ag Bound [5]: 54 RU
Kd [5]: 4.01 nM
koff [5]: 0.000407 s⁻¹
kon [5]: 102000 M⁻¹ s⁻¹
t1/2 [5]: 28 min
B5: H4H12899P (antibody, human IgG4 S228P, kappa, V domains shown)
VH: QVQLVESGGDLVKPGGSLRLSCATSGFTFSDFYMTWIRQAPGKGLEWISYISNSGSIVKYADSVKGRFTISRDNAKNSLYLQMNSLRAEDTAIYYCARFYGDRWGQGTLVTVSS
VL: DIQLTQSPSFLSASVGDRVTITCWASQGISTFLAWYQQKPGKAPKLLIYAASTLQSGVPSRFSGSGSGTDFTLTISSLQPEDFATYHCQQLNNYPWTFGQGTKVEIKR
notes: anti-IL2Rγ monoclonal antibody expressed with human IgG4 Fc

100 nM Ag Bound (RU) [1]: 166 RU
koff [1]: 0.000623 s⁻¹
t1/2 [1]: 19 min
100 nM Ag Bound (RU) [2]: 130 RU
koff [2]: 0.00277 s⁻¹
t1/2 [2]: 4 min
100 nM Ag Bound [3]: 43 RU
Kd [3]: 3.66 nM
koff [3]: 0.00184 s⁻¹
kon [3]: 503000 M⁻¹ s⁻¹
t1/2 [3]: 6 min
100 nM Ag Bound [4]: 79 RU
Kd [4]: 1.29 nM
koff [4]: 0.000379 s⁻¹
kon [4]: 293000 M⁻¹ s⁻¹
t1/2 [4]: 30 min
100 nM Ag Bound [5]: 71 RU
Kd [5]: 1.44 nM
koff [5]: 0.000335 s⁻¹
kon [5]: 232000 M⁻¹ s⁻¹
t1/2 [5]: 34 min
B6: H4H12900P (antibody, human IgG4 S228P, kappa, V domains shown)
VH: QVQLVESGGGLVKPGGSLRLSCEASGFTFNDFYMTWIRQAPGKGLEWIAYISKSGDKMRYADSVKGRFSTSRDNAKNSLSLQMNSLRAEDTAVYYCARFYGDIWGQGTLVTVSS
VL: B5 VL with G28D, T31S, A34V, K45N, T53A, D70E, T85S, H87Y, Q89E
notes: as for B5

Continued, binder first:

B1: H4H12884P (antibody, human IgG4 S228P, kappa, V domains shown)
VH: QVQLQESGPGLVKPSQTLSLTCTVSGGSISSGGYYWSWIRQHPGKGLEWIGFIYYSGKTYYNPSLKSRLTISVDTSKSQFSLKLRSVTAADTAVYYCARLGYTNSAGWFDPWGQGTLVTVSS
VL: DIQMTQSPSSLSASVGDRVTITCRASQSISSYLNWYQQKPGKAPNLLIYAASSLQSGVPSRFSGSGSGTDFTLTISSLQPEDLATYYCQQSYTTPFTFGPGTKVDIKR
notes: as for B5
100 nM Ag Bound (RU) [1]: 171 RU
koff [1]: 0.00147 s⁻¹
t1/2 [1]: 8 min
100 nM Ag Bound (RU) [2]: 135 RU
koff [2]: 0.00335 s⁻¹
t1/2 [2]: 3.4 min
100 nM Ag Bound [3]: 62 RU
Kd [3]: 13.1 nM
koff [3]: 0.00336 s⁻¹
kon [3]: 257000 M⁻¹ s⁻¹
t1/2 [3]: 3.4 min
100 nM Ag Bound [4]: 84 RU
Kd [4]: 6.96 nM
koff [4]: 0.00139 s⁻¹
kon [4]: 199000 M⁻¹ s⁻¹
t1/2 [4]: 8 min
100 nM Ag Bound [5]: 82 RU
Kd [5]: 6.98 nM
koff [5]: 0.00121 s⁻¹
kon [5]: 174000 M⁻¹ s⁻¹
t1/2 [5]: 10 min

B2: H4H12890P (antibody, human IgG4 S228P, kappa, V domains shown)
VH: EVQLVESGGGLVQPGGSLRLSCAASGFTFNNYAMHWVRQAPGKGLEYVSSISSSGGSTYYEDSVKGRFTISRDNSKNTLYLQMGSLRAEDMAVYYCARSFYGSGTYYDTFDMWGQGTMVTVSS
VL: B1 VL with V15I, S31R, N45K, G64A, L83F, T93S, P100Q, V104L, D105E
notes: as for B5
100 nM Ag Bound (RU) [1]: 82 RU
koff [1]: 0.000624 s⁻¹
t1/2 [1]: 19 min
100 nM Ag Bound (RU) [2]: 71 RU
koff [2]: 0.00276 s⁻¹
t1/2 [2]: 4 min
100 nM Ag Bound [3]: 27 RU
Kd [3]: 14 nM
koff [3]: 0.00133 s⁻¹
kon [3]: 95100 M⁻¹ s⁻¹
t1/2 [3]: 9 min
100 nM Ag Bound [4]: 48 RU
Kd [4]: 4.91 nM
koff [4]: 0.000333 s⁻¹
kon [4]: 67900 M⁻¹ s⁻¹
t1/2 [4]: 35 min
100 nM Ag Bound [5]: 37 RU
Kd [5]: 5.16 nM
koff [5]: 0.000313 s⁻¹
kon [5]: 60600 M⁻¹ s⁻¹
t1/2 [5]: 37 min

B3: H4H12889P (antibody, human IgG4 S228P, kappa, V domains shown)
VH: EVQLVESGGGLVQPGGSLRLSCAASGFIFSSYEMHWVRQAPGKGLEWISYISSSGTTIYYADSVKGRFTISRDNAKNSLYLHMNSLRAEDTAVYYCTRARITGTFDVFDIWGQGTMVTVSS
VL: DIQMTQSPSSLSASVGDRVTITCRASQSISSYLNWYQQKPGKAPKLLIFAASNLQSGVPSRFSGSRSGTDFTLTISSLQPEDFATYYCQQNYNIPYTFGQGTKLEIKR
notes: anti-IL2Rγ monoclonal antibody expressed with human IgG4 Fc; also called REGN7257
100 nM Ag Bound (RU) [1]: 147 RU
koff [1]: 0.000578 s⁻¹
t1/2 [1]: 20 min
100 nM Ag Bound (RU) [2]: 148 RU
koff [2]: 0.00183 s⁻¹
t1/2 [2]: 6 min
100 nM Ag Bound [3]: 32 RU
Kd [3]: 3.99 nM
koff [3]: 0.00185 s⁻¹
kon [3]: 465000 M⁻¹ s⁻¹
t1/2 [3]: 6 min
100 nM Ag Bound [4]: 64 RU
Kd [4]: 1.41 nM
koff [4]: 0.00042 s⁻¹
kon [4]: 298000 M⁻¹ s⁻¹
t1/2 [4]: 28 min
100 nM Ag Bound [5]: 59 RU
Kd [5]: 1.74 nM
koff [5]: 0.000404 s⁻¹
kon [5]: 233000 M⁻¹ s⁻¹
t1/2 [5]: 29 min

B4: H4H12874P (antibody, human IgG4 S228P, kappa, V domains shown)
VH: QVQLVESGGGVVQPGRSLRLSCAASGFNFRNFGMHWVRQAPGKGLEWVAGILYDGSSKYYADSVKDRFTISRDNSKNTLFLQMNSLRAEDTAMYYCAKEEDTAMVPFDSWGPGTLVTVSS
VL: B5 VL with T31S, F32Y, K45T, D70E, T85S, H87Y, N92K, N93S, W96L, Q100G
notes: as for B5
100 nM Ag Bound (RU) [1]: 92 RU
koff [1]: 0.000541 s⁻¹
t1/2 [1]: 21 min
100 nM Ag Bound (RU) [2]: 82 RU
koff [2]: 0.00255 s⁻¹
t1/2 [2]: 5 min
100 nM Ag Bound [3]: 52 RU
Kd [3]: 10.4 nM
koff [3]: 0.00125 s⁻¹
kon [3]: 120000 M⁻¹ s⁻¹
t1/2 [3]: 9 min
100 nM Ag Bound [4]: 57 RU
Kd [4]: 3.57 nM
koff [4]: 0.000305 s⁻¹
kon [4]: 85200 M⁻¹ s⁻¹
t1/2 [4]: 38 min
100 nM Ag Bound [5]: 50 RU
Kd [5]: 4.28 nM
koff [5]: 0.000306 s⁻¹
kon [5]: 71500 M⁻¹ s⁻¹
t1/2 [5]: 38 min

B7: H4H12886P (antibody, human IgG4 S228P, kappa, V domains shown)
VH: EVQLVESGGGLVKPGGSLRLSCAASGFTFSTAWMSWVRQSPGRGLEWVGRMKSKTDGGTTFYAAPVKGRFTISRDDSKNTLYLQMNSLKTEDTAVYYCTTGLVPAFYKYYGVDVWGQGTTVTVSS
VL: DIQMTQSPSSLSASVGDRITITCQASQDITNYLNWYQQKPGKAPNLLIYDASNLVTGVPSRFSGSGSGTDFTFTILSLQPEDIATYYCQQYDSLLTFGPGTKVDIKR
notes: as for B5
100 nM Ag Bound (RU) [1]: 145 RU
koff [1]: 0.000471 s⁻¹
t1/2 [1]: 25 min
100 nM Ag Bound (RU) [2]: 109 RU
koff [2]: 0.00197 s⁻¹
t1/2 [2]: 6 min
100 nM Ag Bound [3]: 52 RU
Kd [3]: 15.4 nM
koff [3]: 0.000956 s⁻¹
kon [3]: 61900 M⁻¹ s⁻¹
t1/2 [3]: 12 min
100 nM Ag Bound [4]: 60 RU
Kd [4]: 2.02 nM
koff [4]: 0.00027 s⁻¹
kon [4]: 134000 M⁻¹ s⁻¹
t1/2 [4]: 43 min
100 nM Ag Bound [5]: 57 RU
Kd [5]: 2.45 nM
koff [5]: 0.000266 s⁻¹
kon [5]: 109000 M⁻¹ s⁻¹
t1/2 [5]: 43 min
